Assay results published in patent publication US11278600B2, “Human alpha-galactosidase variants” (Codexis, Inc., priority 2014, dated 2022).

How the values were obtained:
[1] = Serum pharmacokinetics of purified GLA variants in rats; format: in vivo, Sprague-Dawley rats; settings: rat, intravenous 1 mg/ml at 1 ml/kg; four hours post-administration
Description: Purified GLA variants produced as described in Example 4 were assessed for stability in the serum of live rats. WT GLA (SEQ ID NO:5) or SEQ ID NO:42 at 1 mg/ml were administered intravenously at 1 ml/kg to three naïve jugular vein cannulated Sprague-Dawley rats (7-8 weeks old) each. Prior to administration and at 5, 15, 30, 60, 120, and 240 minutes post-administration, […] was collected from each rat in an EDTA tube and centrifuged at 4° C. and 6000 rpm to generate >80 μL of serum per sample. Samples were frozen and stored on dry ice prior to analysis. For analysis, serum (10 μL) was added to 40 μL of 5 mM MUGal in McIlvaine buffer pH 4.4, and incubated at 37° C. for 1 h. Samples were quenched with 50 μL of 1 M sodium carbonate, diluted 1:100 in 1 M sodium carbonate and analyzed by fluorescence spectroscopy (Ex. 355, Em. 448). Four hours post-administration SEQ ID NO:42 retained 15.3% of maximal activity, while WT GLA retained only 0.66% (See, FIG. 9).

[2] = Thermostability of purified GLA variants (Sypro Orange melting); format: physicochemical; settings: purified enzyme 20 μg/ml in 1×PBS, 30 to 75° C. at 0.5° C./min
Description: (§1) GLA variants were purified from mammalian culture supernatant essentially as known in the art (See, Yasuda et al., Prot. Exp. Pur., 37, 499-506 [2004]). Concanavalin A resin (Sigma Aldrich) was equilibrated with 0.1 M sodium acetate, 0.1 M NaCl, 1 mM MgCl2, CaCl2, and MnCl2 pH 6.0 (Con A binding buffer). Supernatant was diluted 1:1 with binding buffer and loaded onto the column. The column was washed with 15 volumes of Concanavalin A binding buffer, and samples were eluted by the addition of Concanavalin A binding buffer including 0.9 M methyl-α-D-mannopyranoside and 0.9 M methyl-α-D-glucopyranoside. Eluted protein was concentrated and buffer exchanged three times using a Centricon® Plus-20 filtration unit with a 10 kDa molecular weight cut off (Millipore) into ThioGal binding buffer (25 mM citrate-phosphate, 0.1 M NaCl, pH 4.8). Buffer exchanged samples were loaded onto a Immobilized-D-galactose resin (Pierce) equilibrated with ThioGal binding buffer. The resin was washed with six volumes of ThioGal binding buffer and eluted with 25 mM citrate phosphate, 0.1 M NaCl, 0.1 M D-galactose, pH 5.5. […]
The thermostability of WT GLA (SEQ ID NO:5) and SEQ ID NO:42 were determined to assess their overall stability. […] The plates were heated from 30 to 75° C. at 0.5° C./min on a RT-PCR machine and Sypro Orange fluorescence was monitored. […]

GLA = target: T1, GLA (Homo sapiens, UniProt P06280); assay: Effect of Migalastat on thermostability and activity of GLA (HEK293T supernatants); format: biochemical
T1 construct: made in house; host or cells: HEK293 / HEK293T cells, transient transfection; unpurified culture supernatant used
T1 sequence (P06280 32-429): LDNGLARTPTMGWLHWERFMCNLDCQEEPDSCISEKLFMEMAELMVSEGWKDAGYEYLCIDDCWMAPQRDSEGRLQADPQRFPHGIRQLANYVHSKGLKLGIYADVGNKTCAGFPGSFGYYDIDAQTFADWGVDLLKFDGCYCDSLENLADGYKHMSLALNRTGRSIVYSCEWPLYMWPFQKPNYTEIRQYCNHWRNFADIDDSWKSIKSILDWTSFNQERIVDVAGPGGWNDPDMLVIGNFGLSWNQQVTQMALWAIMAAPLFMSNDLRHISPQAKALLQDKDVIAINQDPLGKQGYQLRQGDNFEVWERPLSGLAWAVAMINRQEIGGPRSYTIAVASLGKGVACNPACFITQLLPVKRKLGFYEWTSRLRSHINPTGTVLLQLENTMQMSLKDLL
Description: GLA variants were challenged at various temperatures in the presence and absence of 1 μM 1-deoxygalactonojirimycin (Migalastat) to assess their overall stability. Supernatants from mammalian cell cultures were normalized to approximately equal activities by dilution with supernatant from a non GLA expressing culture. Diluted supernatants were added to the wells of a 96-well PCR plate (Biorad, HSP-9601). The plates were sealed and incubated at 30-54° C. for 1 h using the gradient program of a thermocycler. For the assay, 20 μL, of challenged supernatant was mixed with 30 μL, of 1 M citrate buffer pH 4.3 and 50 μL, of 4 mM MUGal in McIlvaine buffer pH 4.8. The reactions were mixed briefly and incubated at 37° C. for 90 minutes, prior to quenching with 100 μL, of 1 M sodium carbonate. Hydrolysis was analyzed using a SpectraMax® M2 microplate reader monitoring fluorescence (Ex. 355 nm, Em. 448 nm).

[3] = Activity on alternative substrate NBD-GB3 (TLC); format: biochemical; settings: HEK293T culture supernatant, pH 4.8, 37° C., 1 h
Description: To confirm that improved activity in MUGal hydrolysis corresponded to more native substrates, mammalian cell-expressed GLA variants were assayed using N-Dodecanoyl-NBD-ceramide trihexoside (NBD-GB3) as substrate. HEK293T culture supernatant (10 μL), 100 mM sodium citrate pH 4.8 (80 μL), and NBD-GB3 (0.1 mg/ml) in 10% ethanol (10 μL) were added to microcentrifuge tubes. Samples were inverted to mix, and incubated at 37° C. for 1 h. The reaction was quenched via addition of 50 μL, methanol, diluted with 100 μL, chloroform, vortexed and the organic layer was isolated for analysis. The organic phase (10 μL) was spotted onto a silica plate and analyzed by thin layer chromatography (chloroform:methanol:water, 100:42:6), detecting the starting material and product using a 365 nm UV lamp.

[4] = Thermostability of GLA variants expressed in HEK293T cells; format: biochemical; settings: HEK293T supernatants; 30-54° C. for 1 h; residual MUGal activity
[5] = pH stability of purified GLA variants over time; format: biochemical; settings: purified enzyme; McIlvaine buffer pH 4.1 or 7.5, 0-24 h at 37° C.
Description: as §1, with “buffer.” for “buffer. The resin was washed with six volumes of ThioGal binding buffer and eluted with 25 mM citrate phosphate, 0.1 M NaCl, 0.1 M D-galactose, pH 5.5.”
To confirm that purified GLA variants show the desired pH stability observed after expression in yeast, WT GLA (SEQ ID NO:5) and SEQ ID NO:42 were incubated in acidic or basic buffers and analyzed for residual activity. […] Samples were quenched with 100 μL, of 1 M sodium carbonate, diluted 1:4 in 1 M sodium carbonate and analyzed by fluorescence spectroscopy (Ex. 355, Em. 448).

WT GLA: wild-type mature human alpha galactosidase A (GLA), polypeptide sequence of SEQ ID NO: 5 [reference compound]
GLA activity retained in serum, % of maximal activity [1]: 0.66% | melting temperature [2]: 37 °C

OC[C@H]1NC[C@H](O)[C@@H](O)[C@H]1O [Migalastat, 1-deoxygalactonojirimycin]
reduction of GLA activity in the Migalastat treated sample (GLA; 0.2 μM final concentration in the assay): ~60% | increase of Tm of GLA by addition of Migalastat (GLA; 1 μM Migalastat during temperature challenge): 5.5 °C

B1: Variant 218: GLA variant; M322I/E367N/R373K relative to SEQ ID NO: 10 (protein)
chain: LDNGLARTPTMGWLHWERFMCNLDCQEEPDSCISEKLFMEMAELMVSEGWKDAGYEYLCIDDCWMAPQRDSEGRLQADPQRFPHGIRQLANYVHSKGLKLGIYADVGNKTCAGFPGSFGYYDIDAQTFADWGVDLLKFDGCYCDSLENLADGYKHMSLALNRTGRSIVYSCEWPLYMWPFQKPNYTEIRQYCNHWRNFADIDDSWASIKSILDWTSFNQERIVDVAGPGGWNDPDMLVIGNFGLSWNQQVTQMALWAIMAAPLFMSNDLRHISPQAKALLQDKDVIAINQDPLGKQGYQLRQGDNFEVWERPLSGLAWAVAIINRQEIGGPRSYTIAVASLGKGVACNPACFITQLLPVKRKLGFYNWTSRLKSHINPTGTVLLQLENTMQMSLKDLL
modifications: Synthetic Polypeptide sequence of Variant No. 218
conversion of NBD-GB3 [3]: Significant conversion | increase of Tm of the enzyme [4]: 4 °C

B2: Variant 402: GLA variant; polypeptide sequence of SEQ ID NO: 42 (protein)
chain: LDNGLARTPTMGWLHWERFMCNLDCQEEPDSCISEKLFMEMAERMVSEGWKDAGYEYLCIDDCWMAPQRDSEGRLQADPQRFPHGIRQLANYVHSKGLKLGIYADVGNKTCAGFPGSFGYYDIDAQTFADWGVDLLKFDGCYCDSLENLADGYKHMSLALNRTGRPIVYSCEWPLYMWPFQKPNYTEIRQYCNHWRNFADIDDSWASIKSILDWTSRNQERIVDVAGPGGWNDPDMLVIGNFGLSWDQQVTQMALWAIMAAPLFMSNDLRHISPQAKALLQDKDVIAINQDPLGKQGYQLRKGDNFEVWERPLSGDAWAVAIINRQEIGGPRSYTIPVASLGKGVACNPACFITQLLPVKRQLGFYNWTSRLKSHINPTGTVLLQLENTMQMSLKDLL
modifications: Synthetic Polypeptide sequence of Variant No. 402
stability (residual activity) under acid and basic challenge compared to WT GLA [5]: considerably more stable | GLA activity retained in serum, % of maximal activity [1]: 15.3% | melting temperature [2]: 55 °C
